Measured values published in patent US20110212108A1, “NEUREGULIN/ERBB SIGNALING AND INTEGRIN” (THE REGENTS OF THE UNIVERSITY OF CALIFORNIA, priority 2008, published 2011).
Changes are numbered by the printed parent chain. “Also recorded” adds a separate entry of the source.

B1: WT NRG1α (175-241): wild type human neuregulin 1 fragment, residues 175-241 of SEQ ID NO:4 (SEQ ID NO:5), entire EGF-like motif and α domain (protein)
chain: GTSHLVKCAEKEKTFCVNGGECFMVKDLSNPSRYLCKCQPGFTGARCTENVPMKVQNQEKAEELYQK
modifications: integrin-binding site within human neuregulin, residues 175-241of human neuregulin 1alpha, long version
B2: 3KE (175-241): NRG1α (175-241) with Lys181/Lys185/Lys187 mutated to Glu, SEQ ID NO:6 (3KE, long version) (protein)
chain: B1 chain with K7E, K11E, K13E
modifications: integrin-binding site within human neuregulin, residues 175-241of human neuregulin 1alpha, long version, 3KE mutant

Legend:
[1] = target: T1, CHO cells that express human α6β4 (Homo sapiens, UniProt P16144+P23229); experiment: Cell adhesion assay, α6β4-CHO cells; format: cell-based; settings: DMEM, 1 h at 37° C.
T1 construct: expressed in transfected cells; host or cells: CHO
Method: FIG. 17. CHO cells that express human α6β4 adhered to wt NRG1 (175-222) but not to the 3KE (175-222) mutant. Wells of 96-well microtiter plate were coated with wt or 3KE mutant NRG1 (175-222) and incubated with α6β4-CHO or β1-CHO cells in DMEM for 1 h at 37° C. as described herein. Bound cells were quantified.

[2] = test system: CHO cells that express recombinant human ErbB4 (ErbB4-CHO); experiment: ERK1/2 activation in ErbB4-CHO cells, Western blotting; format: cell-based, Chinese hamster; settings: serum-starved
Method: FIG. 14. […] ErbB4 was stably expressed in CHO cells (designated ErbB4-CHO cells). ErbB4 was detected in a cell lysate of ErbB4-CHO cells by western blotting (top). Serum-starved CHO or ErbB4-CHO cells were stimulated with wt NRG1 (175-222) or the 3KE (175-222) mutant and ERK1/2 activation was measured by Western blotting.
CHO cells express endogenous ErbB2 and ErbB3, but no ErbB4. CHO cells that express ErbB4 were generated by transfecting ErbB4 expression vector (designated ErbB4-CHO). […] It is therefore believed that the direct binding of integrin […] the Ras-MAP kinase pathway in ErbB4-CHO cells.
Transfection: ErbB4 stably transfected cells were generated by transfecting ErbB4 expression plasmid pCDNA3.1 (with a neo gene) to cells and selected for G418 resistance. Western blotting analysis were performed as described above, and mutagenesis was carried out by the Quick-Change method.

[3] = test system: integrin β3 cytoplasmic domain; experiment: Tyr-phosphorylation of integrin β3 cytoplasmic domain in M21 cells, Western blotting; format: cell-based, human; settings: 10 ng/ml, serum-starved, 30 min
Method: FIG. 13. Wt NRG1 (175-222) enhanced Tyr-phosphorylation of the integrin β3 cytoplasmic domain, while 3KE (175-222) suppressed it in M21 cells. Serum-starved M21 cells were stimulated with 10 ng/ml wt or 3KE NRG1 (175-222). Tyr-phosphorylation of β3 was determined by Western blotting of cell lysates.
It has recently been reported that Tyr phosphorylation of the β3 tail plays a role in VEGF and insulin-like growth factor-1 (IGF1) (Clemmons et al. 2007; Mahabeleshwar et al. 2007). It was tested if NRG1 signaling requires Tyr-phosphorylation of the β3 tail in M21 cells. As shown here, the β3 tail is constitutively Tyr-phosphorylated in serum-starved cells.

[4] = target: T2, Recombinant human ErbB3 Fc chimera (Homo sapiens, UniProt P21860); experiment: Competitive binding assay on immobilized ErbB3; settings: biotin labeled WT 20 nM
T2 construct: Recombinant soluble ErbB3 Fc fusion protein was coated onto well of 96-well microtiter plate; purchased R&D Systems
T2 sequence (P21860 20-643 limits assumed, change not shown): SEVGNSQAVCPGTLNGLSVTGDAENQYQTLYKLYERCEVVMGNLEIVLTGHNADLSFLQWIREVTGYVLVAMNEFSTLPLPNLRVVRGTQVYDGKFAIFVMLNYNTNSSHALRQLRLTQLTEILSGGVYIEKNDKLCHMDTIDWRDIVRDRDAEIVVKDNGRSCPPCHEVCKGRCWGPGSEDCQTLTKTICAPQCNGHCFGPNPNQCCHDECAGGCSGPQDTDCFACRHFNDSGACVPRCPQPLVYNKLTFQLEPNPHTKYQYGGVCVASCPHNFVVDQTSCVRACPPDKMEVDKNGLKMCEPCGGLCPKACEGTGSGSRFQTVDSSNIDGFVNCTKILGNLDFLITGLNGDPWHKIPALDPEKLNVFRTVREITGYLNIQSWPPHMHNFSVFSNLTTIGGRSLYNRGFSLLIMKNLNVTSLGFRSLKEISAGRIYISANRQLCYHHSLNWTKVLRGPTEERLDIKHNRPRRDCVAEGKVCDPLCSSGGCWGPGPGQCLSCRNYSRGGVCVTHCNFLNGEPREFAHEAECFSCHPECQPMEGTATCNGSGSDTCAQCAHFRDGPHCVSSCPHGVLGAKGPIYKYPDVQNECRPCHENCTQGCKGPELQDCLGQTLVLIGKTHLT
Method: FIG. 20. The 3KE mutant of NRG1α (175-241) binds to ErbB3. a). Binding of the 3KE mutant of NRG1α (175-241) to recombinant ErbB3. Recombinant soluble ErbB3 Fc fusion protein (R&D system) was coated onto wells of 96-well microtiter plate (1 μg/ml). NRG1α (175-241) WT or 3KE (175-241) mutant was added to the wells and incubated for 1 h at room temperature. GST was used as a control. After washing the wells, bound GST NRG1α (175-241) was determined by using anti-GST antibody HRP conjugate. […] Competitive binding assay. Recombinant soluble ErbB3 Fc fusion protein was coated onto well of 96-well microtiter plate (1 μg/ml). Binding of biotin labeled NRG1α (175-241) WT (20 nM) in the presence of increasing concentrations of NRG1α (175-241) WT, 3KE (175-241) or GST. After washing the wells, bound biotin labeled NRG1α (175-241) WT was determined by using streptavidin HRP conjugate.
GST-fusion WT NRG1α (175-241) was biotinylated by using EZ-Link Sulfo-NHS-LC-Biotin (Pierce) as described in the manufacturer's instructions. Briefly, GST-fusion WT NRG1α (175-241) was incubated with sulfo-NHS-LCBiotin for 1 hour on ice, and remaining free sulfo-NHS-LC-Biotin was quenched with Tris-HCl buffer pH 8.0. Recombinant human ErbB3 Fc chimera (R&D Systems) was immobilized to wells of 96-well microtiter plate at 1 μg/ml coating concentration in 0.1 M NaHCO3, pH9.4 overnight at 4° C., and the remaining protein binding sites were blocked by incubating with 0.1% BSA. Wells were then incubated with biotinylated GST fusion NRG1α (175-241) in the presence of non-labeled GST, GST-WT NRG1α (175-241) or GST-3KE (175-241) for 3 h at room temperature. Bound biotinylated GST-fusion NRG1α (175-241) WT to wells was determined with streptavidin HRP conjugate and HRP substrate at 490 nm.

αvβ3-ErbB3 complex = target: T3, αvβ3-ErbB3 complex (Homo sapiens, UniProt P05106+P06756+P21860); experiment: Co-immunoprecipitation of integrin αvβ3 and ErbB3 in MCF-7 cells; format: cell-based; settings: for Co-precipitation of integrin β3 with ErbB3 in MCF-7 cells: 5 nM, 5-30 min
T3 construct: endogenous in cells; host or cells: MCF-7
T3 sequence (P21860 20-1342): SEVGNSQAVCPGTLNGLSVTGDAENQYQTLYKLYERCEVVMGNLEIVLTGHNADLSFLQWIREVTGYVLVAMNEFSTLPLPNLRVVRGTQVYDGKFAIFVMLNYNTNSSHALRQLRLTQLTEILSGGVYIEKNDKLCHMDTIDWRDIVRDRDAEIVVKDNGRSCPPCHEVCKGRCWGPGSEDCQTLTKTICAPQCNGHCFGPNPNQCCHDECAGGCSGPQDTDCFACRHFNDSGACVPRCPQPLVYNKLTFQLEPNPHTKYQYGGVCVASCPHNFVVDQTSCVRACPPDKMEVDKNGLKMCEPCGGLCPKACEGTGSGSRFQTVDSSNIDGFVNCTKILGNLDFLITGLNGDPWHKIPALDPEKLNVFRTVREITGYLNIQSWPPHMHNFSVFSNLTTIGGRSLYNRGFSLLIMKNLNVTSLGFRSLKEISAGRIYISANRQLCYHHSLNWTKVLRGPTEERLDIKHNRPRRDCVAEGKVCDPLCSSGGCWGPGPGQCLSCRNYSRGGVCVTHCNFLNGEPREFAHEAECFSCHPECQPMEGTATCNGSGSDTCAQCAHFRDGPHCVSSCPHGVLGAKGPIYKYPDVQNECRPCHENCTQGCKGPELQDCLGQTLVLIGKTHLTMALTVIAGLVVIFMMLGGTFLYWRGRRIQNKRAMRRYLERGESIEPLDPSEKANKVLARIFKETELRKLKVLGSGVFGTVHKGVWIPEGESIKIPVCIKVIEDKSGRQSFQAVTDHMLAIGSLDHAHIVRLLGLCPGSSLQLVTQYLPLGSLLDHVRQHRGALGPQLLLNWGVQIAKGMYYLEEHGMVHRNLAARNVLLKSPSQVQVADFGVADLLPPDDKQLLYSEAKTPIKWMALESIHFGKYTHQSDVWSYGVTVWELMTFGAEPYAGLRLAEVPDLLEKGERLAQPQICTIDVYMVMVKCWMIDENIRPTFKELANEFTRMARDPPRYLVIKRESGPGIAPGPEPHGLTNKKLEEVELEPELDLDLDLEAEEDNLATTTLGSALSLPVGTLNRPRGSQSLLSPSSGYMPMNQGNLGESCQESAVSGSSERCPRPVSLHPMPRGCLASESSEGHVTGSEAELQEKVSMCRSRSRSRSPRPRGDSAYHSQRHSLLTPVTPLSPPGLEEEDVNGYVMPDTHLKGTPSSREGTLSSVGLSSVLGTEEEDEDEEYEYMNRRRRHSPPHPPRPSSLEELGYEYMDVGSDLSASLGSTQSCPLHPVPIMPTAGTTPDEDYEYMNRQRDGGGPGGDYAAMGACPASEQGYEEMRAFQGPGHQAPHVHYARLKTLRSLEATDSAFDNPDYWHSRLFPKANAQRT
T3 sequence (P06756 31-1048): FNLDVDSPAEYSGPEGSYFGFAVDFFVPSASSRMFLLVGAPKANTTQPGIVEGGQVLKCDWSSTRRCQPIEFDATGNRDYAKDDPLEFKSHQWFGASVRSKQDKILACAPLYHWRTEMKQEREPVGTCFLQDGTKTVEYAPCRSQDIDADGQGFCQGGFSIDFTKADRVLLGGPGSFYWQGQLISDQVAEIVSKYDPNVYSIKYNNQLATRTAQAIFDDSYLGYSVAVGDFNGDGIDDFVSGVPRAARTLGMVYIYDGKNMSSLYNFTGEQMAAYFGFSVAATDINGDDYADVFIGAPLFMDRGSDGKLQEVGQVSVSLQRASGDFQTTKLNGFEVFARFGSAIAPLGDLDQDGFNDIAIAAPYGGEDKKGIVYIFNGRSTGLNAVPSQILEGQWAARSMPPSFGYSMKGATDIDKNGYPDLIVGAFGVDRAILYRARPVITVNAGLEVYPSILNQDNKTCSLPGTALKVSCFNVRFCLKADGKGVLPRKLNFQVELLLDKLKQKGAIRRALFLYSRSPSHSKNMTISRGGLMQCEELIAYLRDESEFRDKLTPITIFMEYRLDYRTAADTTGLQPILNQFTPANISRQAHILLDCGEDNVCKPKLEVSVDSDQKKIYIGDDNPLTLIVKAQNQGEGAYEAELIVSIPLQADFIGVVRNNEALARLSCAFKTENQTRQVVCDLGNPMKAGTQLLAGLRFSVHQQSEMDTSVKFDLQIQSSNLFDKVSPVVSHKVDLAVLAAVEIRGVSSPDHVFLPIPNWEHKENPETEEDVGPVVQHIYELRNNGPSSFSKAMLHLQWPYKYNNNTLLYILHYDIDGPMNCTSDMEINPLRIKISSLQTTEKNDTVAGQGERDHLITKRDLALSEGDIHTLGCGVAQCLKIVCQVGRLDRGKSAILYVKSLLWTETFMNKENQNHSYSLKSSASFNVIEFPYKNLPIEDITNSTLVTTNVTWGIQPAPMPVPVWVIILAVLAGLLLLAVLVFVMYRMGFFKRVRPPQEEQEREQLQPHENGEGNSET
T3 sequence (P05106 27-788): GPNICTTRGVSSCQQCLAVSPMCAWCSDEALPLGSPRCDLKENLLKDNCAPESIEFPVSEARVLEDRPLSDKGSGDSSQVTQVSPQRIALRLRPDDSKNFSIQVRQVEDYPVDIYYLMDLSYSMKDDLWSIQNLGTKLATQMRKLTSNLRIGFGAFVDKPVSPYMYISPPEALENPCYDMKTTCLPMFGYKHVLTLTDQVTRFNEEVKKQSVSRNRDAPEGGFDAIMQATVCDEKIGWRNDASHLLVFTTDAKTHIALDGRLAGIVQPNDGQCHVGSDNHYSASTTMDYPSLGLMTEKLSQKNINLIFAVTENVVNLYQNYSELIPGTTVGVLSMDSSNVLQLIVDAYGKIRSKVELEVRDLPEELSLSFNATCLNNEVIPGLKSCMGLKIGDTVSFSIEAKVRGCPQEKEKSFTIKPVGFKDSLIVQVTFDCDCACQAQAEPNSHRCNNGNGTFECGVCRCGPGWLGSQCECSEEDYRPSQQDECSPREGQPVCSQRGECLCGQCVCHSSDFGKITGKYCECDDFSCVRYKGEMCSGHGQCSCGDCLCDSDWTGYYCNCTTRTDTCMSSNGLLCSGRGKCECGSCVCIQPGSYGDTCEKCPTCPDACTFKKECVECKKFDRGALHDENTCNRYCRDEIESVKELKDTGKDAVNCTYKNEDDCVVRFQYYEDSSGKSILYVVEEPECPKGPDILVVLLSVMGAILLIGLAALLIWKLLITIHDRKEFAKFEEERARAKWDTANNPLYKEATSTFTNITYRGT
Method: FIG. 21. WT NRG1α (175-241) induced co-precipitation of integrin αvβ3 and ErbB3, while 3KE (175-241) is defective in this function. a) MCF-7 cells were serum-starved overnight and stimulated with WT or 3KE NRG1α (175-241) at indicated time points. In the present invention, 1 mg protein of cell lysate was used for immuno-precipitation of the αvβ3-ErbB3 complex with anti-ErbB3 antibody Immunoprecipitated materials were analyzed by Western blotting using antibodies specific to ErbB3, phosphorylated ErbB3, or integrin β3. The levels of ErbB3 phosphorylation were less with the 3KE mutant (175-241). Integrin αvβ3 was co-immuno-precipitated with the ErbB3 in 5-30 min upon stimulation with WT NRG1α (175-241), while the 3KE (175-241) mutant was defective in this function. b) Levels of β3 coprecipitation. In the present invention, the levels of β3 co-precipitation from digital images was quantified using ImageJ. The data are normalized with time 0 as 1 from two independent experiments.
Five minutes to 3 h after treatment with 5 nM WT or 3KE mutant NRG1α (175-241), MCF-7 cells were washed with ice-cold PBS and lysed with lysis buffer. The cell lysate was incubated with anti-ErbB3 overnight at 4° C. The immune complex was recovered by incubating with protein A Sepharose (GE Healthcare) for 1 hour at 4° C. and washed three times with wash buffer (20 mM HEPES (pH 7.4), 100 mM NaCl, 10% Glycerol, 0.5% NP-40, 1 mM MgCl2, 5 mM EDTA, 0.5% Triton X-100, 1 mM phenylmethylsulfonyl fluoride, 20 mM NaF, 1 mM Na3VO4, protease inhibitor cocktail (Sigma-Aldrich)). The immunoprecipitates were analyzed by western blotting with antibodies specific to integrin β3.

| Molecule | Adhesion of α6β4-CHO cells to the immobilized protein [1] | ERK1/2 activation in ErbB4-CHO cells [2] | Tyr-phosphorylation of the integrin β3 tail in M21 cells [3] | ERK1/2 activation in ErbB4-CHO cells ([2]; listed as wt NRG (175-222)) | Competition for binding of biotinylated WT NRG1α (175-241) to immobilized soluble ErbB3 [4] | Co-precipitation of integrin β3 with ErbB3 in MCF-7 cells (αvβ3-ErbB3 complex) | Competition for binding of biotinylated WT NRG1α (175-241) to immobilized soluble ErbB3 ([4]; listed as 3KE NRG1α (175-241)) | Competition for binding of biotinylated WT NRG1α (175-241) to immobilized soluble ErbB3 ([4]; listed as 3KE mutant of NRG1α (175-241)) | Levels of ErbB3 phosphorylation in anti-ErbB3 immunoprecipitates of MCF-7 cells (αvβ3-ErbB3 complex; compared with WT NRG1α (175-241)) |
| --- | --- | --- | --- | --- | --- | --- | --- | --- | --- |
| 3KE (175-222): NRG1 (175-222) with Lys181/Lys185/Lys187 mutated to Glu; GTSHLVECAEEEETFCVNGGECFMVKDLSNPSRYLCKCQPGFTGARCT (SEQ ID NO:11) (integrin-binding site within human neuregulin, 3KE mutant, short version) | did not adhere | activated ERKI/2; also recorded: enhanced ERK1/2 activation | suppressed it |  |  |  |  |  |  |
| wt NRG1 (175-222): wild type human neuregulin 1 fragment, EGF-like domain, residues 175-222 of SEQ ID NO:4 (SEQ ID NO:3) (GTSHLVKCAEKEKTFCVNGGECFMVKDLSNPSRYLCKCQPGFTGARCT; integrin-binding site within human neuregulin 1 EGF-like region and portion of alpha domain, residues 175-222 of human neuregulin 1 alpha) [reference compound] | adhere | suppressed ERK1/2 | enhanced levels of Tyr-phosphorylation | suppressed |  |  |  |  |  |
| B1 |  |  |  |  | at comparable levels | increased the amount of integrin β3 protein that co-precipitates with ErbB3 |  |  |  |
| B2 |  |  |  |  |  | did not | at comparable levels | binds to ErbB3 at levels comparable to WT NRG1α (175-241) | less |
